Target: 8His-Smc3 with the J-head reporter cysteine (wild type trimer) (S. cerevisiae) (UniProt P47037)
Test: cross-linking

Substance: Smc1 with the J-head reporter cysteine (wild type trimer) (from UniProt P32908 1-1225) (natural protein)
- percent of molecules cross-linked: 70%

— doi:10.1101/2022.06.19.496727
